Target: LysP-GFP (Pseudomonas aeruginosa PAO1 LysP fused to GFP-His8) (Pseudomonas aeruginosa strain PAO1, UniProt Q9HVG3)
Assay: GFP thermal shift

B1: nanobody Nb5755 (VHH)
VHH: QVQLQESGGGLVQGGSLRLSCAASGRTFSIYGMAWVRQASGKEREFVAAMPRGGGTTNYADSVKGRFSISRDNAKNTVDLQMNSLKPEDTAVYYCVADRGFTLRLGIQHDYWGQGTQVTVSS
  increase in melting temperature: 20 °C

From paper doi:10.1101/2024.05.17.594718 (bioRxiv, 2024)
